Laboratory results: patent US20260167959A1, “APTAZYME-BASED REGULATABLE GENE EXPRESSION SYSTEMS” (REJUVENATE BIO INC, priority 2022, published 2026)

B1: RA441 (nucleic acid)
DNA: GCGCCCGGAATACCAGCATCGTCTTGATGCCCTTGGAAGTCCGGGTCCTGGATTCGCGGAAACGCGTACATCCAGCTGACGAGTCCCAAATAGGACGAAACGCGC
modifications: expressed or natural sequence
B2: RA442 (nucleic acid)
DNA: GCGCGTCCTGGATTCGCGGAAACGCGTACATCCGGAATACCAGCATCGTCTTGATGCCCTTGGAAGTCCGCAGCTGACGAGTCCCAAATAGGACGAAACGCGC
modifications: expressed or natural sequence
B3: RA443 (nucleic acid)
DNA: GCGCGTCCTGGATTCGCGGAAACGCGTACATCCAGCTGACGAGTCCCAAATAGGACGGAATACCAGCATCGTCTTGATGCCCTTGGAAGTCCGCGAAACGCGC
modifications: expressed or natural sequence
B4: RA444 (nucleic acid)
DNA: GCGCGTCCCGGAATACCAGCATCGTCTTGATGCCCTTGGAAGTCCGGCTGGATTCGCGGAAACGCGTACATCCAGCTGACGAGTCCCAAATAGGACGAAACGCGC
modifications: expressed or natural sequence
B5: RA445 (nucleic acid)
DNA: GCGCGTCGAGAATACCAGCATCGTCTTGATGCCCTTGGAAGTCTCCTGGATTCGCGGAAACGCGTACATCCAGCTGACGAGTCCCAAATAGGACGAAACGCGC
modifications: expressed or natural sequence
B6: RA446 (nucleic acid)
DNA: GCGCGTCCTGGATTCCGGAATACCAGCATCGTCTTGATGCCCTTGGAAGTCCGGCGGAAACGCGTACATCCAGCTGACGAGTCCCAAATAGGACGAAACGCGC
modifications: expressed or natural sequence
B7: RA447 (nucleic acid)
DNA: GCGCGTCCTGGATTCGCGGAAACGCGTACATCCAGCTGACGAGTCCGGAATACCAGCATCGTCTTGATGCCCTTGGAAGTCCCAAATAGGACGAAACGCGC
modifications: expressed or natural sequence
B8: RA448 (nucleic acid)
DNA: GCGCGCGGAATACCAGCATCGTCTTGATGCCCTTGGAAGTCCGTCCTGGATTCGCGGAAACGCGTACATCCAGCTGACGAGTCCCAAATAGGACGAAACGCGC
modifications: expressed or natural sequence
B9: RA449 (nucleic acid)
DNA: GCGCGTCCTGGATTCGCGGAAACGCGTACATCCAGCTGACGAGTCCCAAATAGGACGAAACGCGAGTGATACCAGCATCGTCTTGATGCCCTTGGCAGCACTC
modifications: expressed or natural sequence
B10: RA450 (nucleic acid)
DNA: GCGCGTCCTGGATTCGCGGAAACGCGTACATCCAGCTGACGAGTCCCAAATAGGACGAAACCCGGAATACCAGCATCGTCTTGATGCCCTTGGAAGTCCGGGCGC
modifications: expressed or natural sequence
B11: RA451 (nucleic acid)
DNA: GCGCGTCCTGGATTCGCGGAAGAATACCAGCATCGTCTTGATGCCCTTGGAAGTCTAACGCGTACATCCAGCTGACGAGTCCCAAATAGGACGAAACGCGC
modifications: expressed or natural sequence
B12: RA452 (nucleic acid)
DNA: GCGCGTCCTGGAGAATACCAGCATCGTCTTGATGCCCTTGGAAGTCTATTCGCGGAAACGCGTACATCCAGCTGACGAGTCCCAAATAGGACGAAACGCGC
modifications: expressed or natural sequence
B13: RA453 (nucleic acid)
DNA: GCGCGTCCTGGATTCGCGGAAACGCGTACATCCAGCTGACGAGTCCCAAATAGGACGAAACAGAATACCAGCATCGTCTTGATGCCCTTGGAAGTCTGCGC
modifications: expressed or natural sequence
B14: RA454 (nucleic acid)
DNA: GCGCGTCCTGGATTCGCGGAAACGCGTACATCCAGCTGACGAGTCCAGAATACCAGCATCGTCTTGATGCCCTTGGAAGTCTCAAATAGGACGAAACGCGC
modifications: expressed or natural sequence
B15: RA455 (nucleic acid)
DNA: GCGCGTCCTGGATTCGCGGAAACGCGTACATCCAGCTGACGAGTCCCCGGAATACCAGCATCGTCTTGATGCCCTTGGAAGTCCGGCAAATAGGACGAAACGCGC
modifications: expressed or natural sequence
B16: RA456 (nucleic acid)
DNA: GCGCGTCCTGGATTCGCGGAAACGCGTACATCCAGCTGACGAGTCCCAAATACCGGAATACCAGCATCGTCTTGATGCCCTTGGAAGTCCGGGGACGAAACGCGC
modifications: expressed or natural sequence
B17: RA457 (nucleic acid)
DNA: GCGCGTCCTGGATTCGCGGAAACGCGTACATCCAGCTGACGAGTCCCAAATAGGACGAAGTGATACCAGCATCGTCTTGATGCCCTTGGCAGCACTAACGCGC
modifications: expressed or natural sequence
B18: RA458 (nucleic acid)
DNA: GCGCGTCCTGGATTCGCGGAAACGCGTACATCCAGCTGACGAGTCCCAAATAGGACGAACCGGAATACCAGCATCGTCTTGATGCCCTTGGAAGTCCGGACGCGC
modifications: expressed or natural sequence
B19: RA459 (nucleic acid)
DNA: GCGCGTCCTGGATTCGCGGAAACGCGTACATCCAGCTGACGAGTCCCAAATAGGACGAAGGAATACCAGCATCGTCTTGATGCCCTTGGAAGTCCACGCGC
modifications: expressed or natural sequence
B20: RA460 (nucleic acid)
DNA: GCGCGTCCTGGATTCGCAGTGATACCAGCATCGTCTTGATGCCCTTGGCAGCACTGGAAACGCGTACATCCAGCTGACGAGTCCCAAATAGGACGAAACGCGC
modifications: expressed or natural sequence
B21: RA461 (nucleic acid)
DNA: GCGCGTCCTGGATTCGCGGAAACGCGTACATCCAGGAGAATACCAGCATCGTCTTGATGCCCTTGGAAGTCTCCTGACGAGTCCCAAATAGGACGAAACGCGC
modifications: expressed or natural sequence
B22: RA462 (nucleic acid)
DNA: GCGCGTCCTGGATTCGCGCCGGAATACCAGCATCGTCTTGATGCCCTTGGAAGTCCGGGAAACGCGTACATCCAGCTGACGAGTCCCAAATAGGACGAAACGCGC
modifications: expressed or natural sequence
B23: RA463 (nucleic acid)
DNA: GCGCGTCCTGGATTCGCGGAAACGCGTACATCCAGCTGACGAGTCGAGAATACCAGCATCGTCTTGATGCCCTTGGAAGTCTCGCCCAAATAGGACGAAACGCGC
modifications: expressed or natural sequence
B24: RA464 (nucleic acid)
DNA: GCGCGTCCTGGAGTGATACCAGCATCGTCTTGATGCCCTTGGCAGCACTATTCGCGGAAACGCGTACATCCAGCTGACGAGTCCCAAATAGGACGAAACGCGC
modifications: expressed or natural sequence
B25: RA465 (nucleic acid)
DNA: GCGCGTCCTGGATTCGCGGAAACGCGTACATCCAGCTGACCGAGAATACCAGCATCGTCTTGATGCCCTTGGAAGTCTCGGAGTCCCAAATAGGACGAAACGCGC
modifications: expressed or natural sequence
B26: RA466 (nucleic acid)
DNA: GCGCGTCCTGGATTCGCGGAACGGAATACCAGCATCGTCTTGATGCCCTTGGAAGTCCGACGCGTACATCCAGCTGACGAGTCCCAAATAGGACGAAACGCGC
modifications: expressed or natural sequence
B27: RA467 (nucleic acid)
DNA: GCGCGTCCTGGATTCGCGGAAACGAGAATACCAGCATCGTCTTGATGCCCTTGGAAGTCTCGTACATCCAGCTGACGAGTCCCAAATAGGACGAAACGCGC
modifications: expressed or natural sequence
B28: RA044 (nucleic acid)
DNA: GCGGAGAATACCAGCATCGTCTTGATGCCCTTGGAAGTCTCCGTCCTGGATTCGCGGAAACGCGTACATCCAGCTGACGAGTCCCAAATAGGACGAAACGCGC
modifications: expressed or natural sequence
B29: RA045 (nucleic acid)
DNA: GAGAATACCAGCATCGTCTTGATGCCCTTGGAAGTCTCGCGCGTCCTGGATTCGCGGAAACGCGTACATCCAGCTGACGAGTCCCAAATAGGACGAAACGCGC
modifications: expressed or natural sequence

tested on: Renilla luciferase RNA; assay: Barcoded aptazyme variant library screen: un-cleaved Renilla luciferase RNA by barcode read counts, HEK293-T cells; type: cell-based; settings: un-cleaved Renilla luciferase RNA by barcode read counts; with 1 mM theophylline (ON) over without theophylline (OFF); HEK293-T cells; triplicate
Procedure, shortened: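 Barcode sequencing of cDNA versus DNA, normalized per aptazyme, gave the un-cleaved Renilla luciferase RNA fraction and fold-change with versus without theophylline (triplicates). Library: T3H48 ribozyme with one of seven theophylline aptamer variants inserted at each position, placed in the Renilla 3′ UTR of a dual-luciferase vector.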

Row | Molecule | Fold change in RNA expression between the ON state and the OFF state
1 | B1 | 0.6
2 | B2 | 0.6
3 | B3 | 0.6
4 | B4 | 0.6
5 | B5 | 0.5
6 | B6 | 0.5
7 | B7 | 0.5
8 | B8 | 0.5
9 | B9 | 0.5
10 | B10 | 0.5
11 | B11 | 0.5
12 | B12 | 0.5
13 | B13 | 0.5
14 | B14 | 0.5
15 | B15 | 0.5
16 | B16 | 0.5
17 | B17 | 0.5
18 | B18 | 0.5
19 | B19 | 0.5
20 | B20 | 0.5
21 | B21 | 0.5
22 | B22 | 0.4
23 | B23 | 0.4
24 | B24 | 0.4
25 | B25 | 0.4
26 | B26 | 0.4
27 | B27 | 0.4

same assay, conditions: un-cleaved Renilla luciferase RNA, HEK293-T cells cultured with 1 mM theophylline (ON) over without theophylline (OFF); barcode read counts, triplicate

Row | Molecule | Fold change in RNA expression between the ON state and the OFF state [fold]
28 | B28 | 2.1
29 | B29 | 2.0
